Results published in patent publication US20040029228A1.

What was measured:
Assay in all cases: cell-based or functional assay
[1] = target: human CRF2-4 (IL10Rb) (human)
[2] = target: zcytoR19 and IL10Rb (CRF2-4) co-expressed on cells (heterodimeric receptor) (human)
[3] = target: T1, human zcytor19 (Zyctor19) cytokine receptor (human)
T1 sequence (Q8IU57 1-520, looked up): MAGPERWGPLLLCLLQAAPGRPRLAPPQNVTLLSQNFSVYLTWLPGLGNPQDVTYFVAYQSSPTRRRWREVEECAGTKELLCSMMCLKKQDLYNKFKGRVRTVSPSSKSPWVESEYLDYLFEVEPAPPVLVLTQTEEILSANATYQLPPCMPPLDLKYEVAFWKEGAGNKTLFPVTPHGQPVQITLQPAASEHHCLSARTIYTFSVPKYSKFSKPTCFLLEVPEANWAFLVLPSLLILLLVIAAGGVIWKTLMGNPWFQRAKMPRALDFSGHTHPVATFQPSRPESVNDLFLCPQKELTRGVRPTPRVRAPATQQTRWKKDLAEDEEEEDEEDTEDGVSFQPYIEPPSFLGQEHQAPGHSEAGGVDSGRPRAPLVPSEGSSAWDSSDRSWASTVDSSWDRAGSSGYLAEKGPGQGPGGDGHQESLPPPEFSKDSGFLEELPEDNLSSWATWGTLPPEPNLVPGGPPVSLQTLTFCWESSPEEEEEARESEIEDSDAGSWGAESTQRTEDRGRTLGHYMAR

Sequence of human CRF2-4 (IL10Rb) (human) (Q08334 whole entry): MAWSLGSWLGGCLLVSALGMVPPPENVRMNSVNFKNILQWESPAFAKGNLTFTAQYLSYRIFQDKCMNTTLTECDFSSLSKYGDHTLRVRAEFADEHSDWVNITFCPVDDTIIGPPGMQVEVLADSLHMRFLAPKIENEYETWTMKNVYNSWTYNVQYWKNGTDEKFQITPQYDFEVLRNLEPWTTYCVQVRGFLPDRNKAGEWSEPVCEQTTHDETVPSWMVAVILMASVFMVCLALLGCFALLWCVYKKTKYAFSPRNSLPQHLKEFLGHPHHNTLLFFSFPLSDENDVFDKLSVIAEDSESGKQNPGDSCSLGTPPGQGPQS

B1: zcyto22 (ligand)
chain: MTGDCMPVLVLMAAVLTVTGAVPVARLRGALPDARGCHIAQFKSLSPQELQAFKRAKDALEESLLLKDCKCRSRLFPRTWDLRQLQVRERPVALEAELALTLKVLEATADTDPALGDVLDQPLHTLHHILSQLRACVSRQGPGTQIQPQPTAGPRTRGRLHHWLHRLQEAPKKESPGCLEASVTFNLFRLLTRDLNCVASGDLCV
B1 was tested, and the ISRE-luciferase fold induction, wild-type 293 cells, Zcyto22 0.01 ng/ml (fold induction) [1] was 0.9, the ISRE-luciferase fold induction, wild-type 293 cells, Zcyto22 0.01 ng/ml + IL10Rb neutralizing Antibody (fold induction) [1] was 0.9 and the ISRE-luciferase fold induction, wild-type 293 cells, Zcyto22 0.1 ng/ml (fold induction) [1] was 1.2. It also gave an ISRE-luciferase fold induction, wild-type 293 cells, Zcyto22 0.1 ng/ml + IL10Rb neutralizing Antibody (fold induction) [1] of 0.8, an ISRE-luciferase fold induction, wild-type 293 cells, Zcyto22 1 ng/ml (fold induction) [1] of 1.8 and an ISRE-luciferase fold induction, wild-type 293 cells, Zcyto22 1 ng/ml + IL10Rb neutralizing Antibody (fold induction) [1] of 0.8. It also gave an ISRE-luciferase fold induction, wild-type 293 cells, Zcyto22 10 ng/ml (fold induction) [1] of 8, an ISRE-luciferase fold induction, wild-type 293 cells, Zcyto22 10 ng/ml + IL10Rb neutralizing Antibody (fold induction) [1] of 1 and an ISRE-luciferase fold induction, wild-type 293 cells, Zcyto22 100 ng/ml (fold induction) [1] of 11. The ISRE-luciferase fold induction, wild-type 293 cells, Zcyto22 100 ng/ml + IL10Rb neutralizing Antibody (fold induction) [1] was 1.2, the ISRE-luciferase fold induction, BHK cells transfected with zcytoR19 and IL10Rb (CRF2-4), zcyto22 0.001 ng/ml (fold induction) [2] was 1.3 and the ISRE-luciferase fold induction, BHK cells transfected with zcytoR19 and IL10Rb (CRF2-4), zcyto22 0.01 ng/ml (fold induction) [2] was 1.7. The ISRE-luciferase fold induction, BHK cells transfected with zcytoR19 and IL10Rb (CRF2-4), zcyto22 0.1 ng/ml (fold induction) [2] was 2.4, the ISRE-luciferase fold induction, BHK cells transfected with zcytoR19 and IL10Rb (CRF2-4), zcyto22 1 ng/ml (fold induction) [2] was 2.7 and the ISRE-luciferase fold induction, BHK cells transfected with zcytoR19 and IL10Rb (CRF2-4), zcyto22 10 ng/ml (fold induction) [2] was 2.7. The ISRE-luciferase fold induction, BHK cells transfected with zcytoR19 and IL10Rb (CRF2-4), zcyto22 100 ng/ml (fold induction) [2] was 2.2, the ISRE-luciferase fold induction, BHK cells transfected with zcytoR19 and IL10Rb (CRF2-4), zcyto22 1000 ng/ml (fold induction) [2] was 2.2 and the ISRE-luciferase fold induction, 293 cells transfected with ISRE-Luc./Zcytor19, Zcyto22 125 ng/ml (fold induction) [3] was 104. For the same binder, the ISRE-luciferase fold induction, BHK cells transfected with zcytoR19 alone, zcyto22 0.001 ng/ml (fold induction) [3] was 1.2, the ISRE-luciferase fold induction, BHK cells transfected with zcytoR19 alone, zcyto22 0.01 ng/ml (fold induction) [3] was 1.2 and the ISRE-luciferase fold induction, BHK cells transfected with zcytoR19 alone, zcyto22 0.1 ng/ml (fold induction) [3] was 1.1. For the same binder, the ISRE-luciferase fold induction, BHK cells transfected with zcytoR19 alone, zcyto22 1 ng/ml (fold induction) [3] was 1.5, the ISRE-luciferase fold induction, BHK cells transfected with zcytoR19 alone, zcyto22 10 ng/ml (fold induction) [3] was 1.9 and the ISRE-luciferase fold induction, BHK cells transfected with zcytoR19 alone, zcyto22 100 ng/ml (fold induction) [3] was 2. The ISRE-luciferase fold induction, BHK cells transfected with zcytoR19 alone, zcyto22 1000 ng/ml (fold induction) [3] was 1.8.
